Measured values from the supplement of paper PMC10724198.
± gives the standard deviation of the averaged measurements.

Test system: Saccharomyces cerevisiae
Experiment: protein stability index of tFT-peptide fusion (C-terminal peptide) (PSI (0-1 scale)); higher = more stable (slower turnover)
Conditions: genetic background: wild type; temperature: 30 C
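Note: PSI is a weighted mean of sequencing reads over stability bins, variants kept only with over 10 reads, mCherry proximal and sfGFP distal, peptide attached via GGGS linker.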

Row | Sequence | protein stability index
1 | PTPHTTHPQNNT | 0.729 ± 0.0062
2 | PTPLPRISLTSV | 0.667 ± 0.025
3 | PTPPLLPPAPSP | 0.707 ± 0.048
4 | PTPPPPPSPFAL | 0.804 ± 0.15
5 | PTPPSPTPLPAT | 0.679 ± 0.043
6 | PTPSDRLPPPSH | 0.712 ± 0.0098
7 | PTPVAHSLSLRI | 0.637 ± 0.033
8 | PTRFLPVPSLFS | 0.679 ± 0.048
9 | PTSSPAPPLFAF | 0.67 ± 0.028
10 | PTTAVNLPQGGT | 0.68 ± 0.063
11 | PTVPYRLVLSTV | 0.511 ± 0.056
12 | PVALYFIREFSP | 0.699 ± 0.013
13 | PVAVSQPNGPKD | 0.633 ± 0.031
14 | PVCIRSLGTALF | 0.675 ± 0.0086
15 | PVCLHPPPSHTH | 0.737 ± 0.061
16 | PVDFQSQGECEL | 0.695 ± 0.0089
17 | PVFNDDTIIRNP | 0.761 ± 0.032
18 | PVFPPPAPTPPT | 0.647 ± 0.046
19 | PVINPSCIVMMW | 0.65 ± 0.04
20 | PVPPPPPPFSLP | 0.727 ± 0.032
21 | PVPPPPPPPLPP | 0.6 ± 0.03
22 | PVPPRSPPRLPF | 0.6673 ± 0.002
23 | PVPPTPPHPGPL | 0.617 ± 0.059
24 | PVPRCGLPLSLP | 0.685 ± 0.1
25 | PVSALHLSLSCP | 0.698 ± 0.028
26 | PVSFPFPISSLS | 0.701 ± 0.062

Row | Sequence | protein stability index
27 | PVSPRLLLRFTL | 0.691 ± 0.14
28 | PVSVSSFFLSRF | 0.767 ± 0.21
29 | PVVRISRLSFFA | 0.674 ± 0.007
30 | PWRPTNPADRSV | 0.61 ± 0.1
31 | PWWSRPAASVGV | 0.659 ± 0.047
32 | PYCVTLTLPFSS | 0.7134 ± 0.0047
33 | PYEFRLISRNTR | 0.669 ± 0.095
34 | PYFPLRPPSLPI | 0.6747 ± 0.0011
35 | PYFSLFSRRSLN | 0.539 ± 0.02
36 | PYFVGSGLVVLC | 0.5639 ± 0.0055
37 | PYHARPDRSLSG | 0.693 ± 0.035
38 | PYIFLPLGRAGN | 0.723 ± 0.076
39 | PYPVTLSRPTPT | 0.611 ± 0.15
40 | PYRPYLLPGSLA | 0.632 ± 0.099
41 | QAANPWQRPFGW | 0.689 ± 0.087
42 | QAGARGRRGVRG | 0.678 ± 0.016
43 | QAGGEYGLKVRW | 0.805 ± 0.033
44 | QAGKPLYVEMVS | 0.609 ± 0.021
45 | QCLTVPRSAHLP | 0.607 ± 0.05
46 | QDLLNVSSFTRS | 0.727 ± 0.017
47 | QEQITKETDLTH | 0.663 ± 0.013
48 | QEREAGVTALIR | 0.707 ± 0.04
49 | QFEEFKRGFEVA | 0.722 ± 0.024
50 | QFQRTLCGKRWV | 0.685 ± 0.043
51 | QFQVWGAPGLKR | 0.711 ± 0.12
52 | QFVSALVCLSVG | 0.5534 ± 0.0015

Row | Sequence | protein stability index
53 | QGCAWWGGGAGG | 0.684 ± 0.038
54 | QGEKDFRMGSIK | 0.632 ± 0.015
55 | QGELHRDVYIVI | 0.6793 ± 0.0013
56 | QGKPSKWRSGSI | 0.646 ± 0.048
57 | QGRIVSVILLSL | 0.557 ± 0.023
58 | QHVDRFVGVNRE | 0.715 ± 0.051
59 | QIESNLGYWGIG | 0.73819 ± 0.00032
60 | QILPVLSKPTWI | 0.736 ± 0.057
61 | QIQNRVDYRIKL | 0.6353 ± 0.0031
62 | QITYKTLSGINM | 0.703 ± 0.065
63 | QKEETGGLGGGK | 0.6609 ± 0.0025
64 | QKERENKHTEIE | 0.645 ± 0.21
65 | QKINKRPTIRQI | 0.603 ± 0.063
66 | QKKELQKQKIAK | 0.683 ± 0.015
67 | QKKKEKKQKEGD | 0.678 ± 0.009
68 | QKKKKKNKNDQK | 0.686 ± 0.056
69 | QKKKQTDHTNGV | 0.684 ± 0.03
70 | QKKTKRGLTYTS | 0.67 ± 0.043
71 | QKPKKKNTTEKQ | 0.689 ± 0.021
72 | QKRKMIEKEKEK | 0.768 ± 0.098
73 | QKWKIIRACVGC | 0.606 ± 0.049
74 | QLHTTENHHRRL | 0.792 ± 0.032
75 | QLPGTVVRYTLF | 0.6408 ± 0.0041
76 | QMTCADGVDCLL | 0.589 ± 0.018
77 | QPAVKIGYAMAL | 0.644 ± 0.048
78 | QPITEALHDSCT | 0.675 ± 0.098

Row | Sequence | protein stability index
79 | QPNDIEIYTLLT | 0.652 ± 0.05
80 | QPPLPPPLPGSP | 0.741 ± 0.085
81 | QPRLRPPLPSPP | 0.638 ± 0.069
82 | QPSRQTIPWDTV | 0.738 ± 0.037
83 | QQNKKKKTRKSG | 0.704 ± 0.046
84 | QQRVKTYHELHL | 0.712 ± 0.013
85 | QRGKKKKDKSLV | 0.6424 ± 0.0025
86 | QRPFRRRRVLCP | 0.561 ± 0.054
87 | QSAGGTRAKFGG | 0.658 ± 0.053
88 | QSRFFCDKKVWG | 0.6934 ± 0.0049
89 | QSTGDFAVRQSF | 0.753 ± 0.093
90 | QSWEDILKINEE | 0.757 ± 0.011
91 | QTQTAKEWAYHP | 0.686 ± 0.015
92 | QTRYAPCQRAPT | 0.645 ± 0.08
93 | QTTKRKKKAKKK | 0.675 ± 0.089
94 | QVASVTSLLPYS | 0.75 ± 0.032
95 | QVGTHVTLCEDP | 0.679 ± 0.0098
96 | QWGGWGVGRIEG | 0.629 ± 0.069
97 | QYASPSISTLPV | 0.726 ± 0.065
98 | RAAPQEDFTFYR | 0.771 ± 0.14
99 | RAASLVSCSLIL | 0.672 ± 0.024
100 | RACALLIVGAGG | 0.527 ± 0.0085
101 | RAFDWFFIFGWC | 0.636 ± 0.04
